From patent publication US7795380B2, “Compositions and methods for nucleic acid delivery” (University of Iowa Research Foundation, priority 2006, dated 2010)
Where no end group is shown, it is not given here. photolabel = not defined here

How the values were obtained:
[1] = stability of the linker peptide by LC/MS; type: physicochemical
Description: To test the hypothesis that the new linker would be stable under normal operating conditions, the linker was first synthesized via solid phase peptide synthesis and then purified by preparative reverse phase HPLC. Characterization and purity of the linker was accomplished through analytical reverse phase HPLC and LC/MS (FIG. 11). The stability of the linker peptide was determined by LC/MS after exposure to a variety of conditions including incubations at room temperature, 37° C., 50° C., and exposure to sunlight.
However, this is not surprising since PL-L1 peptide is a photoactive compound and should photoactivate if provided the proper stimulus.

[2] = tested on: erythrocytes; conditions: cited from earlier work

## PL-Tyr-Lys-Lys-Lys (photolabel-YKKK; reading uncertain; also: printed as PL-Tyr-Lys-Lys-Lys) [PL-L1]
[1]; exposure to sunlight
  stability by LC/MS: moderate degradation
[1]; room temperature, 37° C., 50° C.
  stability by LC/MS: stable

## H5WYG: cationic peptide from HA-2 with His in place of Glu (GGLFHAIAAHFIHGGWHGLIHGWWG)
[2]; pH 6.4
  hemolysis activity: full hemolytic activity

## JTS-1: amphipathic acidic fusogenic peptide developed by Gottschalk and coworkers (GGLFEALLELLESLWELLLEA)
[2]; pH of 5
  higher hemolysis activity than INF-7: 8 fold
